Measurements: PMC7132340 (EMBO Reports, 2020)
Changes are numbered by the printed parent chain.

B1: Gal‐3 CRD mutant Q220E (domain or fragment, UniProt P17931 108-250, looked up)
chain: GAPAGPLIVPYNLPLPGGVVPRMLITILGTVKPNANRIALDFQRGNDVAFHFNPRFNENNRRVIVCNTKLDNNWGREERQSVFPFESGKPFKIQVLVEPDHFKVAVNDAHLLEYNHRVKKLNEISKLGISGDIDLTSASYTMI
notes: The limits are those printed for the wild-type CRD
B2: Gal‐3 CRD mutant N160A (domain or fragment, UniProt P17931 108-250, looked up)
chain: B1 chain with N53A, E113Q
notes: as for B1
B3: Gal‐3 CRD mutant E185A (domain or fragment, UniProt P17931 108-250, looked up)
chain: B1 chain with E78A, E113Q
notes: as for B1
B4: Gal‐3 CRD mutant N222A (domain or fragment, UniProt P17931 108-250, looked up)
chain: B1 chain with E113Q, N115A
notes: as for B1
B5: Gal‐3 CRD mutant Q220K (domain or fragment, UniProt P17931 108-250, looked up)
chain: B1 chain with E113K
notes: as for B1
B6: Gal‐3 CRD mutant H217A (domain or fragment, UniProt P17931 108-250, looked up)
chain: B1 chain with H110A, E113Q
notes: as for B1

Experiments:
WT human CXCL12α [1] = biological target: T1, WT human CXCL12α (human, UniProt P48061-2 22-89, 15N-labelled in one NMR orientation; FITC in flow cytometry (Fig 6H)); assay: NMR titration; 1H-15N HSQC, 15N-labelled protein with unlabelled partner (10 μM 15N-CXCL12 with 330 μM Gal-3 CRD; 30 μM 15N-Gal-3 CRD with 500 μM CXCL12; 30 μM 15N-CXCL12 with 500 μM Gal-3 CRD mutants), 20 mM sodium acetate pH 4.5, 4.5 mM lactose, 37°C; conditions: both partners purified
T1 construct: CXCL12 alpha, human, codon-optimised cDNA, released from the thioredoxin-His fusion by enterokinase; also called CXCL12 FITC; source: E. coli BL21(DE3), from inclusion bodies, purified (HisTrap, Heparin HP, enterokinase cleavage, Mono S); not shown: thioredoxin, N-terminal, cleaved; His tag, N-terminal, cleaved

WT human CXCL12α [2] = biological target: T1, WT human CXCL12α; assay: far-Western, overlay or dot blot; solid-phase immunoassay: 100 ng of Gal-3 or Gal-3 CRD variants on nitrocellulose, 120 nM CXCL12 overnight, SA-HRP, densitometry (Appendix Fig S7); conditions: both partners purified

Binder	CXCL12 sequence-averaged Δδ (WT human CXCL12α [1]) [ppm]	binding result (WT human CXCL12α [2])
B1	0.0073	
B2		binds
B3		binds
B4		binds
B5	0.0036	
B6	0.0048	
